Results taken from the supplement of paper PMC10567573.
± gives the standard deviation.

Assay: protein stability index of a GFP-peptide fusion (GPS, HEK-293T) (PSI 1-6); higher = more stable
Details: c terminus: a fixed tail appended
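Note: 24-mer peptide tiles fused after GFP, lentivirally expressed, FACS-sorted into six equal bins by GFP/DsRed ratio, decoded by Illumina sequencing, PSI is the read-weighted mean bin number.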

| Sequence | protein stability index (treatment: DMSO) | protein stability index (treatment: MLN4924 1 uM, 8 h) |
| --- | --- | --- |
| EQDMERRKADFKAGKALVISGREV [ZC3H15] | 4.8 ± 0.3 | 4.89 ± 0.18 |
| TALVTVSSEEFEDKWFRKIKDHFC [C8orf76] | 2.33 ± 0.16 | 2.54 ± 0.25 |
| RQVKHYRIFRLPNNWYYISPRLTF [SLA] | 2.43 ± 0.52 | 2.14 ± 0.069 |
| STTEWNDETLYQEFNGLKKMNPKL [CHIT1] | 4.2 ± 0.2 | 4.54 ± 0.2 |
| LYPEGIGARQQQVTTYLHKDYNNL [POMT2] | 3.25 ± 0.15 | 3.35 ± 0.26 |
| FIPAKTGKDVATQILEGELFDFDL [RSPH3] | 2.7 ± 0.48 | 2.89 ± 0.56 |
| LKILKPSIPLERIHFDSYITCVSG [FBXO33] | 2.22 ± 0.41 | 2.23 ± 0.42 |
| RRVRLELWDTSGQGRFCTIFRSYS [RAB40C] | 2.35 ± 0.5 | 1.99 ± 0.29 |
| EVGKSFERHKLKRQDADAWTLYKI [SMG5] | 2.78 ± 0.4 | 2.9 ± 0.32 |
| NAGQSDNRSLAEACSEGDVNAVRK [ANKRD17] | 5.56 ± 0.15 | 5.46 ± 0.15 |
| WTPLHLACYFGHRQVVQDLLKAGA [OSBPL1A] | 2.61 ± 0.6 | 2.64 ± 0.48 |
| KKIPIISNAMLVGDKLKFLSMLLT [ACSBG2] | 2.3 ± 0.79 | 2.47 ± 0.6 |
| KRLSRFDIEMSMRGDIFERIVHLQ [NLN] | 1.84 ± 0.33 | 2 ± 0.026 |
| AQRHRGSAKDGGPQPPDAPQLVSS [PLEKHN1] | 5.04 ± 0.51 | 5.22 ± 0.28 |
| SNFNYFYHRETEGEEQSQYMHVGS [KCNA3] | 3.89 ± 0.08 | 3.88 ± 0.48 |
| LQRLDFSVRGYMMSKQRERQLRRR [RETREG3] | 3.88 ± 0.14 | 3.92 ± 0.28 |
| LHHVKTMWYPEIKHFCPRAPVILV [RHOBTB2] | 2.65 ± 0.58 | 2.58 ± 0.87 |
| TENSALQLQVTEREEVRGRELTGL [LMNB1] | 5.14 ± 0.2 | 5.13 ± 0.28 |
| CRDGEVLLRLSKHGPGHETPMTIP [ACSBG2] | 2.62 ± 0.4 | 2.66 ± 0.63 |
| IPPMAQPGLPPVPGAPGMPPGIPP [ZNF207] | 4.29 ± 0.24 | 4.4 ± 0.35 |
| SYKYTSRYVLKAGQTVTIWAANAG [LMNB1] | 2.24 ± 0.25 | 1.87 ± 0.25 |
| RTSRKFLACRLTPDMETKLLFMTS [INTS3] | 2.49 ± 0.37 | 2.33 ± 0.39 |
| VPAPQPPVTKPLFPSAGQAQAAVQ [ZNF207] | 4.39 ± 0.41 | 4.59 ± 0.18 |

| Sequence | protein stability index (treatment: DMSO) | protein stability index (treatment: MLN4924 1 uM, 8 h) |
| --- | --- | --- |
| MEKKSKPKNSVWKRLKSPFRKKKD [RIT1] | 3.69 ± 0.12 | 3.88 ± 0.3 |
| RTPLIKLSPKKTWEGFIGGFFSTV [CDS1] | 2.03 ± 0.16 | 1.88 ± 0.37 |
| RWDMADNEQVLTTEHEKKQKLETD [YJU2B] | 5.39 ± 0.32 | 5.37 ± 0.21 |
| SFGGEWSAPDTMKRYSMYLTPKGG [TRIM29] | 3.09 ± 0.51 | 3.09 ± 0.48 |
| MDQLQGLGSDYEQPLEVKNNSNLQ [CDC25A] | 5.09 ± 0.17 | 4.85 ± 0.18 |
| TEMIITKAGRRMFPACRVSVTGLD [TBX6] | 2.31 ± 0.3 | 2.2 ± 0.22 |
| GYLVTKVVAVDRDSGQNAWLSYRL [PCDHGA10] | 2.6 ± 0.56 | 2.58 ± 0.69 |
| QVYKETRLFLDGEEEKEWAFEESK [AASDHPPT] | 4.56 ± 0.26 | 4.74 ± 0.15 |
| LDPASLAWLTEEEPEPAEVTSTSQ [DDIT3] | 5.51 ± 0.17 | 5.53 ± 0.31 |
| VEKQADTLNVIELNVQKTVDYTGQ [STX11] | 4.6 ± 0.21 | 4.58 ± 0.15 |
| QEDSGLRDHSVRVLISNHVTPFDH [AUP1] | 3.9 ± 0.12 | 3.67 ± 0.29 |
| EPLRILSKYHRFISFTLYLIGFCM [CDS2] | 1.95 ± 0.32 | 1.96 ± 0.16 |
| VCQKLLLDAMNYHLMPFRQHCRQS [KLHL14] | 3 ± 0.47 | 2.99 ± 0.62 |
| AVTLRCGHNFCRGCVSRCWEVQVS [TRIM35] | 2.62 ± 0.12 | 2.33 ± 0.43 |
| EAAQVVPDGLGLDEAREEEGDREV [TRIB3] | 5.63 ± 0.15 | 5.43 ± 0.45 |
| VTGHTNIVDFLTHHAQTSKTERIN [FEM1C] | 3.45 ± 0.11 | 3.54 ± 0.19 |
| NESRRQIQSLTCEVDGLRGTNEAL [PRPH] | 4.7 ± 0.29 | 5.11 ± 0.056 |
| DFNLCLFYLPSSPNLSLASEDEEE [SMG5] | 2.85 ± 0.21 | 3.14 ± 0.24 |
| GEGRKSRKFSRLSCLRRRRHPPKV [SMG5] | 3.69 ± 0.37 | 3.82 ± 0.28 |
| DRMARPSGRSGHNTRGTGSSSSGV [CSNK1G3] | 4.87 ± 0.13 | 5.03 ± 0.098 |
| QSFIIPLERYVASLMPLQKSISPW [DENND6A] | 2.25 ± 0.04 | 2.46 ± 0.56 |
| KSRLSSVSVTYCSVSQDFPGSNLN [ETS2] | 2.62 ± 0.26 | 2.64 ± 0.18 |
| PETKQRKLSPLRLSVSNNQEPDFI [KMT2E] | 4.16 ± 0.24 | 4.38 ± 0.32 |

| Sequence | protein stability index (treatment: DMSO) | protein stability index (treatment: MLN4924 1 uM, 8 h) |
| --- | --- | --- |
| SNDGARRQFEFYLEEMILPLMVAS [BTBD10] | 2.25 ± 0.078 | 2.2 ± 0.073 |
| AQKESLQNQHHSASLQASIFSGAA [APBB1IP] | 4.03 ± 0.22 | 3.98 ± 0.26 |
| VSEWASKAKANGITMYAVGVGKAI [MATN2] | 2.33 ± 0.3 | 2.36 ± 0.2 |
| GGEEEDEDENIEVVYSKAASVPKV [EIF5] | 5.18 ± 0.14 | 4.93 ± 0.47 |
| VFVGNQLIPQPLDSEEDEKMEEDI [PCMTD1] | 4.99 ± 0.2 | 5.07 ± 0.22 |
| ALAGYTGSGPIQLWQFLLELLTDK [ETS1] | 2.35 ± 0.13 | 2.48 ± 0.31 |
| AISVVGVSAGGHTLSRPPPAQVPR [TFE3] | 3.38 ± 0.24 | 3.35 ± 0.24 |
| PAGCMYIHGGVVNIHENKRTGSLF [KLHDC10] | 2.52 ± 0.18 | 2.45 ± 0.26 |
| EAEREFILNLKKKECKDRGFEYDG [NLN] | 4.58 ± 0.41 | 4.91 ± 0.32 |
| MAKKHKKIRLRCQKGIPPSLRGRA [TBC1D10A] | 3.29 ± 0.18 | 3.35 ± 0.29 |
| RNTLNQPCSGSVSLQPRRSIAFRL [GMCL1] | 2.41 ± 0.29 | 2.36 ± 0.11 |
| IDFLRVVRNQQSLAVSNMGARSKG [PTPN9] | 2.76 ± 0.17 | 3.46 ± 0.098 |
| SKIDHYVLEYRRTNFEGPPRLKED [FSD1] | 3.52 ± 0.15 | 3.63 ± 0.087 |
| EYDTVTREVKVLLDQLRFPNGVQL [APMAP] | 2.01 ± 0.42 | 2.22 ± 0.39 |
| IQEQKVVLEENGEKNQVQLGKLEA [SASS6] | 5.2 ± 0.22 | 5.42 ± 0.3 |
| ELERQRRLLGSVQQDLERSLQDAS [PBXIP1] | 4.62 ± 0.26 | 4.46 ± 0.28 |
| RSLANGPNAGEQPGQVAGADFESE [EID1] | 5.22 ± 0.24 | 5.74 ± 0.18 |
| MAEHRSMDGRMEAATRGGSHLQAA [SCNN1D] | 4.56 ± 0.27 | 4.648 ± 0.04 |
| LPSPVQACSEDSLFLRCSLRHKDE [DRICH1] | 4.31 ± 0.15 | 4.48 ± 0.2 |
| LQNTYMGYLDYRKKAIKDLGISPS [GLT8D2] | 2.64 ± 0.24 | 2.91 ± 0.16 |
| VDNHFNLLTTSPVFPHYIEKPLGR [TRIM43] | 3.05 ± 0.4 | 2.96 ± 0.7 |
| GSIPEFFHIMKRKFTNKEWETIRS [AASDHPPT] | 2.73 ± 0.27 | 2.46 ± 0.3 |
| RKISSLSFTLEEEEEGGEEEEEAA [FAM50A] | 5.53 ± 0.26 | 5.33 ± 0.26 |

| Sequence | protein stability index (treatment: DMSO) | protein stability index (treatment: MLN4924 1 uM, 8 h) |
| --- | --- | --- |
| FLWGPRALIETSYVKVLHHMVKIS [MAGEA6] | 2.14 ± 0.89 | 2.59 ± 0.65 |
| NVEAQLSEIRCDLERQNQEYQVLL [KRT36] | 3.58 ± 0.29 | 3.53 ± 0.21 |
| KVLEALKLKGAEVTYMNMTAYNKG [PLD5] | 2.18 ± 0.6 | 2.42 ± 0.39 |
| YTDYVATRWYRAPELLVGDTQYGS [CDKL4] | 2.56 ± 0.7 | 2.38 ± 0.34 |
| VRHEGTRTLWSGLPATLVMTVPAT [SLC25A39] | 2.33 ± 0.18 | 2.27 ± 0.13 |
| RNQYEALVETNRREVEQWFATQTE [KRT33B] | 4.37 ± 0.28 | 4.27 ± 0.48 |
| RSEEAVQVLIKHSADVNARDKNWQ [ANKRD44] | 4.17 ± 0.22 | 4.44 ± 0.33 |
| LKQAKELDRERAAANEQLTRAILR [CHCHD3] | 3.56 ± 0.11 | 3.81 ± 0.2 |
| HIKFPIDYPYSPPTFRFLTKMWHP [UBE2R2] | 2.3 ± 0.32 | 2.24 ± 0.39 |
| GHLSKDVDENDSHEGEDQFLSLEA [DLC1] | 5.63 ± 0.17 | 5.54 ± 0.077 |
| VGGGFGGGFGGGDGGLLSGNEKIT [KRT15] | 4.04 ± 0.39 | 4.16 ± 0.14 |
| SALAPSVFKQAKDKVSDGVTKSPE [MAP2] | 5.44 ± 0.22 | 5.44 ± 0.18 |
| KKDKDISKEKDTQNQNITLDCEGT [KMT2E] | 5.23 ± 0.26 | 5.49 ± 0.28 |
| GAAESPYGHPAGIDYKTTTILLDG [RAB40B] | 4 ± 0.067 | 3.96 ± 0.25 |
| TAVGAILAGGLCVGIYATNSAEAC [ACSBG2] | 2.35 ± 0.12 | 2.84 ± 0.75 |
| AGSSTWERYFIPVSCFLTFNIFDW [SLC29A1] | 3.09 ± 0.2 | 3.05 ± 0.58 |
| THRLKDGSTMLIEAAKGGHTSVVC [ANKRD17] | 2.51 ± 0.33 | 2.56 ± 0.33 |
| RGNLSILAAVLVEPKLHTPMYFFL [OR3A1] | 2.86 ± 0.46 | 3.06 ± 0.57 |
| MSGRSKRESRGSTRGKRESESRGS [USP39] | 4.96 ± 0.12 | 5 ± 0.46 |
| MTPAEAEMHFLENAKKLSMYGVDL [EPB41L3] | 3 ± 0.29 | 3.03 ± 0.52 |
